Positions of bridges follow the written chain, without caps; N, C: chain ends. Non-standard residues stand in square brackets, D forms with d. No end group written: not given here. Sar = CNCC(=O)O
Target: T1, recombinant wild-type (wt) human kallikrein 2 (human, UniProt P20151 25-261)
Assay: cell-based or functional assay

Binder | inhibition [%]
SRFKVWAAAG-OH [SRFKVWAAAG (SEQ ID NO:62)] | 30
ARFKVWWAAG (S1A variant of HK2p01) [ARFKVWWAAG (SEQ ID NO:56)] | 94
SRFKVAWAAG-OH [SRFKVAWAAG (SEQ ID NO:61)] | 10
AAARRPFPG [AAARRPFPG (SEQ ID NO:48)] | 37
SRAKVWWAAG-OH [SRAKVWWAAG (SEQ ID NO:58)] | 0
SRFKAWWAAG-OH [SRFKAWWAAG (SEQ ID NO:60)] | 39
GAARRPF[Sar]APG [GAARRPF-Sar-APG (SEQ ID NO:53)] | 24
GAARRPFPAPG [GAARRPFPAPG (SEQ ID NO:51)] | 69
GAARR[Sar]FPAPG [GAARR-Sar-FPAPG (SEQ ID NO:52)] | 0
GAARR[Sar]F[Sar]APG [GAARR-Sar-F-Sar-APG (SEQ ID NO:54)] | 0
SRFAVWWAAG-OH [SRFAVWWAAG (SEQ ID NO:59)] | 0

Target: T1, recombinant wild-type (wt) human …
Assay: Lineweaver-Burke plots; cleavage of 0-400 µM S-2302 by 0.2 µM hK2 at 4 µM peptide

Binder | Ki [nM]
ARFKVWWAAG (S1A variant of HK2p01) [ARFKVWWAAG (SEQ ID NO:56)] | 1410

Target: T1, recombinant wild-type (wt) human …
Assay: cell-based or functional assay
Remark: another data set of the same source

Binder | IC50 for hK2 inhibition (cleavage of S-2302) [nM]
ARFKVWWAAG (S1A variant of HK2p01) [ARFKVWWAAG (SEQ ID NO:56)] | 2200
SRFKVWWAAG [synthetic peptide HK2p01 (SRFKVWWAAG)] | 3400

Target: T1, recombinant wild-type (wt) human …
Assay: phage display selection on hK2 captured by MAb 5E4, four rounds
Experimental: The phage display libraries were constructed in fUSE-5-phage as previously described (Koivunen et al. 1994). We screened libraries with the structures CX₇C, CX₈C, X₉, X₁₀, X₁₁, CX₃CX₃CX₃C, CX₈, CX₉, X₂CX₁₁C, where C stands for cysteine and X for any of the randomly occurring amino acids. Screening was performed according to Koivunen et al. (Koivunen et al. 1994). We screened each peptide library against hK2, which was captured by MAb 5E4 coated into microtiter wells (Wu, Leinonen et al. 2000). MAb 5E4 binds PSA and hK2 in an equimolar manner and reacts with an epitope which is remote from the active site of these enzymes (Stenman et al. 1999), (Leinonen, Wu et al. 2002). Twenty four ng of hK2 was incubated in antibody-coated wells for 30 minutes at 37° C. in Tris/NaCl buffer followed by washing of unbound hK2. An aliquot of phage libraries containing 10¹⁰-10¹¹ transducing units was added into the microtiter wells in 100 μL of 1% BSA in TBS, which was composed of 0.05 mol/L Tris buffer (pH 7.7) containing 0.154 mol/L NaCl and 8 mmol/L NaN3. Incubation took place at 4° C. with gentle shaking for 16-24 hours in the first round and for 1 hour for the following three rounds. The phages were removed and wells were washed with TBS containing 0.5% Tween 20. For elution of the bound phage 0.1 M Glycine-HCl, pH 2.2 containing 0.1% BSA was added. The eluted phage suspension was neutralized with 1 M Tris buffer, pH 9.0, amplified by infection of Escherichia coli K91 cells and purified by polyethylene glycol precipitation (Wu, Leinonen et al. 2000). After four rounds of selection and amplification single stranded DNA from individual phage clones was prepared. The peptide sequences were determined after amplification by PCR (Koivunen et al. 2001). The relevant part of the viral DNA was sequenced with an ABI 310 Genetic analyzer and Dye Terminator Cycle Sequencing Core Kit (PE Applied Biosystems, Foster City, Calif., USA) using the primer 5′-TAATACGACTCACTATAGGGCAAGCTGATAAACCGATACAAT-3′ (SEQ ID NO: 130).

Binder | binding result
CYRMPTCMQRD (disulfide (positions not given here); also: displayed as fusion to phage pIII protein, also called phage p06; HK2p06 phage clone (X11 library); not shown: pIII coat protein of fUSE-5 filamentous phage) [phage carrying peptide HK2p06 as part of pIII protein] | binds
AARRPFPAPS (also called phage p02; HK2p02 phage clone (X10 library); not shown: pIII coat protein of fUSE-5 filamentous phage) [phage carrying peptide HK2p02 as part of pIII protein] | binds
CFRQGCWVIT (disulfide (positions not given here); also: displayed as fusion to phage pIII protein, also called phage p04; HK2p04 phage clone (X10 library); not shown: pIII coat protein of fUSE-5 filamentous phage) [phage carrying peptide HK2p04 as part of pIII protein] | binds
PARRPFPVTA (also called phage p03; HK2p03 phage clone (X10 library); not shown: pIII coat protein of fUSE-5 filamentous phage) [phage carrying peptide HK2p03 as part of pIII protein] | binds

Target: T1, recombinant wild-type (wt) human …
Assay: competition phage IFMA on hK2 captured by MAb 5E4; 5 µM synthetic peptide
Experimental: The phage IFMA was performed essentially as described (Wu, Leinonen et al. 2000). In this assay, 50 ng of hK2 in 200 μL of assay buffer was captured onto wells coated with MAb 5E4. After washing, 2.5 μL of phage (10⁸-10⁹ infectious particles) and 200 μL assay buffer were added to wells. After incubation for 1 h, the wells were washed and filled with 200 μL of assay buffer containing 100 ng Eu-labeled anti-phage polyclonal antibody recognizing the M13 coat protein of the phage. After incubation for 60 min, the wells were washed 4 times, and enhancement solution (Perkin Elmer-Wallac) was added. The fluorescence was quantified with a Victor fluorometer in time resolved mode (Perkin Elmer-Wallac).
The relative binding sites of the peptides on hK2 were mapped by competition experiments with chemically synthesized and phage peptides. The protocol was based on the IFMA method described above except that phages and the synthetic peptides were reacted together with hK2. Briefly, each of the synthetic peptides at 5 μM concentration was added into the wells in which hK2 had been captured by MAb 5E4. After incubation for 30 min each phage was added. After 1 h incubation, the wells were washed and the assay was as described above for IFMA.

Binder | binding result
CYRMPTCMQRD (disulfide 1-7 (inferred), Two Cys residues, said to indicate a cyclic structure) [synthetic peptide HK2p06 (CYRMPTCMQRD)] | binds
